Results from patent US20150315272A1 (published 2015).
Blank lines part the entries; values can stand above or below the binder they belong to.

Key:
[1] = target: T1, Recombinant IL-17A/F heterodimer (IL-17A and IL-17F linked by a GS linker) (human); assay: Biacore 3000 SPR, 25 C, antibody captured by anti-mouse IgG Fc, cytokine titrated from 25 nM
T1 construct: also called heterodimer A/F; human recombinant IL-17A/F heterodimer
Description: All experiments were performed at 25° C. Affinipure F(ab′)₂ fragment goat anti-mouse IgG, Fc fragment specific (Jackson ImmunoResearch) was immobilised on a CMS Sensor Chip (Biacore AB) via amine coupling chemistry to a capture level of ≈6000 response units (RUs). HBS-EP buffer (10 mM HEPES pH 7.4, 0.15 M NaCl, 3 mM EDTA, 0.005% Surfactant P20, Biacore AB) was used as the running buffer with a flow rate of 10 μL/min. […] The surface was regenerated at a flowrate of 10 uL/min by a 10 μL injection of 40 mM HCl, followed by a 5 μL injection of 5 mM NaOH.
Double referenced background subtracted binding curves were analysed using the BIAevaluation software (version 3.2) following standard procedures. Kinetic parameters were determined from the fitting algorithm.

IL-17B = target: T2, IL-17B (UniProt Q9UHF5 21-180); assay: Biacore 3000 SPR, antibody captured by anti-human IgG Fc
T2 sequence (looked up): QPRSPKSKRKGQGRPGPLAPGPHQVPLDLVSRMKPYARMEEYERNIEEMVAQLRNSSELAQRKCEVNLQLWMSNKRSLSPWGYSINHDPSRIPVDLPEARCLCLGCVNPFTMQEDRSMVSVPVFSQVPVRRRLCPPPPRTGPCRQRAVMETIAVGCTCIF
Description: (§1) All experiments were performed at 25° C. Affinipure Fc Fragment goat anti-human IgG, Fc fragment specific (Jackson ImmunoResearch) was immobilised on a CMS Sensor Chip via amine coupling chemistry to a capture level of ≈6000 response units (RUs). HBS-EP buffer (10 mM HEPES pH 7.4, 0.15 M NaCl, 3 mM EDTA, 0.005% Surfactant P20, Biacore AB) was used as the running buffer with a flow rate of 10 μl/min. […] The surface was regenerated by a 30 μL injections of 40 mM HCl, followed by one 5 μL injection of 5 mM NaOH.
(§2) Background subtraction binding curves were double referenced and analysed using the BIAevaluation software (version 3.2) following standard procedures. Kinetic parameters were determined from the fitting algorithm.

IL-17E = target: T3, IL-17E (UniProt Q9H293 33-177); assay: as above
T3 sequence (looked up): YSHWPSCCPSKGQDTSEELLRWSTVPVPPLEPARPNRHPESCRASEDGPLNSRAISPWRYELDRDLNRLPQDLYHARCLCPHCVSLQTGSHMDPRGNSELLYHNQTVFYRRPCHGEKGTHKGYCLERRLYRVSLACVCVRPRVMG
Description: as §1, §2

IL-17C = target: T4, IL-17C (UniProt Q9P0M4 19-197); assay: as above
T4 sequence (looked up): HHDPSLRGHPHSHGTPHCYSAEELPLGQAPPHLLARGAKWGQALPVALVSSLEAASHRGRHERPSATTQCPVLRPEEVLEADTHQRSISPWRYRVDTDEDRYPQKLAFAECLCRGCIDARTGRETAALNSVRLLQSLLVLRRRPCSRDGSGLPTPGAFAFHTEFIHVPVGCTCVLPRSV
Description: as §1, §2

IL-17D = target: T5, IL-17D (UniProt Q8TAD2 18-202, limits assumed); assay: as above
T5 sequence (looked up): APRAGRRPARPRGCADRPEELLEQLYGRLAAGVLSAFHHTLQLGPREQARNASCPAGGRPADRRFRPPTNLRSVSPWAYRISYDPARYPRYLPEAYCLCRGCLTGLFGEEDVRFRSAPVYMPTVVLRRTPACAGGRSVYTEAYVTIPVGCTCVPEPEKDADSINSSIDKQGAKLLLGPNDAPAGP
Description: as §1, §2

T1 sequence (chain, as listed by the source limits assumed): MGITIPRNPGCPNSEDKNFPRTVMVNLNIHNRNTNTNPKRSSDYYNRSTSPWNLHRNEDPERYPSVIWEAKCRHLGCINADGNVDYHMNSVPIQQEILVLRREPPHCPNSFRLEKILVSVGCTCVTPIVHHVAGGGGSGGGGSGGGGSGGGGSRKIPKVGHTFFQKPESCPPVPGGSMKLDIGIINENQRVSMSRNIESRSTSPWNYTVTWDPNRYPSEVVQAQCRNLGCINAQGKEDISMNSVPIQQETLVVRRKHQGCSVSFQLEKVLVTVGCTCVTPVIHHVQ

Kd [1]: 0.116 nM
B1: Antibody CA028-0496 (murine IgG1 constant regions) (antibody, V domains shown)
VH: EVQLVESGGGLVQPGGSLRLSCAASGFTFSDYNMAWVRQAPGKGLEWVATITYEGRNTYYRDSVKGRFTISRDNAKNSLYLQMNSLRAEDTAVYYCASPPQYYEGSIYRLWFAHWGQGTLVTVSS
VL: AIQLTQSPSSLSASVGDRVTITCRADESVTTLMHWYQQKPGKAPKLLIYLVSNRESGVPSRFSGSGSGTDFTLTISSLQPEDFATYYCQQTWSDPWTFGQGTKVEIKR
notes: captured by anti-mouse IgG Fc

binding result (IL-17B): no binding | binding result (IL-17E): no binding | binding result (IL-17C): no binding | binding result (IL-17D): no binding
B2: Antibody CA028-0496 (human IgG4 constant regions) (antibody, V domains shown)
VH: B1 VH
VL: B1 VL
notes: human gamma-4 constant region with hinge mutation S241P and human C-kappa (Km3), made in CHO cells; also called CA028496
